Assay results taken from US20170296629A1, “INHIBITOR OF EXTRACELLULAR TRAP FORMATION IN LEUKOCYTE” (KEIO UNIVERSITY, priority 2014, published 2017).

Tested on: Healthy Individual's Peripheral Blood Neutrophil
Assay: Inhibition of NET formation in neutrophils pretreated with lactoferrin-derived peptide fragment; DNA concentration in culture supernatant (Picogreen)
Type: cell-based
Conditions: human neutrophils, pretreatment at room temperature for 30 minutes
Procedure: Effect of Inhibiting NET Formation Stimulation of Healthy Individual's Peripheral Blood Neutrophil by Pretreatment with Lactoferrin-derived Peptide Fragment
For each round of experiment, 15 ml to 20 ml of peripheral blood was collected from a healthy individual by using an EDTA-containing syringe (with a needle of 18 to 22 G). After collecting the blood, in a 15 ml conical tube charged with 3 ml of Mono-Poly Resolving Medium (Cat No. DSBN100, DS Pharma Biochemical Co., Ltd.), 3.5 ml of the whole blood was gently layered over a lower layer of Mono-Poly Resolving Medium. The resultant 15 ml conical tube was centrifuged with a swing centrifuge at room temperature (15 to 30° C.) at 400×g for 20 minutes, and the conical tube was then gently taken out. An uppermost brown plasma layer and a lymphocyte/monocyte layer thereunder were removed with an aspirator or the like. In addition, a transparent layer under the lymphocyte/monocyte layer was removed as much as possible. […]
A culture supernatant was collected, centrifuged at 200×g for 10 minutes, and the thus obtained supernatant was transferred to a fresh microcentrifuge tube. The amount of DNA was measured by using Picogreen dsDNA assay reagent (P11496 Invitrogen) in accordance with the accompanying protocol.

B1: human lactoferrin: Human lactoferrin protein, Genbank NP_001186078.1 (protein, listed as Homo sapiens)
chain: MRKVRGPPVSCIKRDSPIQCIQAIAENRADAVTLDGGFIYEAGLAPYKLRPVAAEVYGTERQPRTHYYAVAVVKKGGSFQLNELQGLKSCHTGLRRTAGWNVPIGTLRPFLNWTGPPEPIEAAVARFFSASCVPGADKGQFPNLCRLCAGTGENKCAFSSQEPYFSYSGAFKCLRDGAGDVAFIRESTVFEDLSDEAERDEYELLCPDNTRKPVDKFKDCHLARVPSHAVVARSVNGKEDAIWNLLRQAQEKFGKDKSPKFQLFGSPSGQKDLLFKDSAIGFSRVPPRIDSGLYLGSGYFTAIQNLRKSEEEVAARRARVVWCAVGEQELRKCNQWSGLSEGSVTCSSASTTEDCIALVLKGEADAMSLDGGYVYTAGKCGLVPVLAENYKSQQSSDPDPNCVDRPVEGYLAVAVVRRSDTSLTWNSVKGKKSCHTAVDRTAGWNIPMGLLFNQTGSCKFDEYFSQSCAPGSDPRSNLCALCIGDEQGENKCVPNSNERYYGYTGAFRCLAENAGDVAFVKDVTVLQNTDGNNNEAWAKDLKLADFALLCLDGKRKPVTEARSCHLAMAPNHAVVSRMDKVERLKQVLLHQQAKFGRNGSDCPDKFCLFQSETKNLLFNDNTECLARLHGKTTYEKYLGPQYVAGITNLKKCSTSPLLEACEFLRK
DNA concentration in the culture supernatant (release of the DNA due to the NET): reduced in a concentration-dependent manner
